In patent US9290794B2, “Mutant protease biosensors with enhanced detection characteristics” (PROMEGA CORPORATION, priority 2010, dated 2016):

System: Caspase-8
Assay: Caspase-8 biosensors transfected into HeLa cells, induction with TRAIL
Type: cell-based
Details: 1 μg/mL TRAIL, 37° C.
From the text: To evaluate whether the mutant thermostable luciferase biosensors of the present invention can be used to detect Caspase-8 activity in cells, biosensors were generated that contained the Caspase-8 cleavage site, LETDG (SEQ ID NO:15). Two different biosensors, TL-CP358-Caspase-8 and TL-CP233-Caspase-8 were used. As controls, the firefly (Photinus pyralis; Ppy) luciferase biosensors FF-CP234-Caspase-8 (M/Ppy residues 234-544/LETDG/Ppy residues 4-230/V), FF-CP359-Caspase-8 (M/Ppy residues 359-544/LETDG/Ppy residues 4-355/V), and TL-CP358-DEVD.
All biosensors were transfected into HeLa cells. Cells were plated at a (10,000/well) into a 96-well tissue culture plate. […]
After overnight incubation, the media was removed from the cells and replaced with CO2 Independent Media (Invitrogen Cat. No. 18045088) with 2 mM Luciferin EF (Promega Cat. No. E6551). Cells were pre-equilibrated with Luciferin EF for 2 hrs in a Varioskan luminometer with bioluminescence readings taken every 20 min. […] The cells were again incubated at 37° C. in a Varioskan luminometer for 500+ min with bioluminescence measured every 20 min.
FIGS. 5 and 7 identify the kinetic profiles of Caspase 8 activation by TRAIL over time at 37° C. […] Fold induction of activation was calculated by dividing the signal of samples with TRAIL over the signals without trail at a given time point. […]

B1: TL-CP358-Caspase 8: TL Ppe fragments 358-543 and 4-354 with caspase-8 site linker … (SEQ ID NOs:59 and 60) (protein)
chain: MPGSTGKIVPLHAVKVVDPTTGKILGPNEPGELYFKGPMIMKGYYNNEEATKAIIDNDGWLRSGDIAYYDNDGHFYIVDRLKSLIKYKGYQVAPAEIEGILLQHPYIVDAGVTGIPDEAAGELPAAGVVVQTGKYLNEQIVQDYVASQVSTAKWLRGGVKFLDEIPKGSTGKIDRKVLRQMLEKHTNGSSLETDGSSGKNILYGPEPFYPLEDGTAGEQMFDALSRYAAIPGCIALTNAHTKENVLYEEFLKLSCRLAESFKKYGLKQNDTIAVCSENSLQFFLPVIASLYLGIIVAPVNDKYIERELIHSLGIVKPRIVFCSKNTFQKVLNVKSKLKSIETIIILDLNEDLGGYQCLNNFISQNSDSNLDVKKFKPYSFNRDDQVASIMFSSGTTGLPKGVMLTHKNIVARFSIAKDPTFGNAINPTSAILTVIPFHHGFGMMTTLGYFTCGFRVVLMHTFEEKLFLQSLQDYKVESTLLVPTLMAFLAKSALVEKYDLSHLKEIASGGAPLSKEIGEMVKKRFKLNFVRQGYGLTETTSAVLITPKGV
detection of Caspase 8 activation by TRAIL: can detect Caspase 8 activation by TRAIL
